Assay results reported in patent US20110086089A1, “USE OF P27KIP1 FOR THE PREVENTION AND TREATMENT OF HEART FAILURE” (UNIVERSITY HEALTH NETWORK, priority 2008, published 2011).
Marks after values point to notes of the source that are not given here.

Key:
WT mice = assay: Chronic Ang II infusion for 14 days with daily TAT.protein injection, WT mice; format: in vivo; settings: for FS / LVEDD / LVEF / LVESD / PWD: WT, echocardiography at 14 days
Source text: FIG. 5 is a series of graphs, blots and cell stainings showing CK2-alpha-prime is important for Ang II action in vivo. […] Transduction of recombinant active CK2-alpha-prime evokes cardiac hypertrophy in the absence of Ang II. (A) Heart-weight corrected for body-weight (left panel) and Masson-stain of myocardial cross sections (right panel). Mean±s.e.m., n=6-8. #P<0.01 vs sham saline. *P<0.01 vs sham saline. Scale bar, 2 mm. (B) Cell size analysis of adult cardiac myocytes isolated from 8-weeks-old mice. One hundred cells from three different mice were analyzed per group. Mean±s.e.m. #P<0.01 vs sham saline. *P<0.01 vs sham saline. **P<0.01 vs Ang II. (c) Determination of ANF/BNP mRNA levels by qRT-PCR. Mean±s.e.m., n=6-8. *P<0.05 vs sham saline. **P<0.05 vs Ang II. #P<0.05 vs sham saline. (D) Visualization of ectopic TAT-conjugated p27deltaPi by indirect immunofluorescence microscopy employing anti-His tag antibodies. Scale bar, 200 μm. (E) Left ventricular extracts (2-3 mg) were subjected to anti-CK2-alpha-prime immunocomplex kinase assays employing histone H1 substrate. Aliquots of kinase reactions were subjected to immunoblotting using antibodies as indicated on the left (top and middle panel). Levels of endogenously expressed or transduced proteins in total left ventricular heart tissue samples (60 μg) were analyzed by immunoblotting (bottom panel). Experiments to (E) were done twice with similar results.
To define whether CK2-alpha-prime -directed p27 turnover plays a role in vivo, the inventors chronically infused Ang II^72 and intraperitoneally injected recombinant TAT-conjugated CK2-alpha-prime and p27 variants in WT and p27^−/− mice (FIG. 9). […] These mice had normal LVEDD and LVESD when compared to Ang II-infused littermates (Table 3). […] CK2-alpha-prime activity and p27 destabilization were similar to their non-transduced Ang II-treated siblings (FIG. 5E).
(§1) Spontaneously beating cardiomyocytes from heart ventricles of neonatal rats were cultured and subjected to treatment with angiotensin II (Ang II). DMAT (2-dimethylamino-4,5,6,7-tetrabromo-1H-benzimidazol), DMSO, lactacystin and LLM were obtained from Calbiochem. Ang II was purchased from Sigma. Animal usage was in accordance with approved institutional animal care guidelines. Age-matched male WI C57BL/6 and p27^−/− mice were used in this study. For results shown in FIGS. 1 to 9: Ang II was chronically infused subcutaneously by osmotic pumps (model 2000, Alzet) at a dose of 1.4 μg/kg per minute for 14 days. TAT.proteins (10 mg/kg) were injected intraperitoneally once daily for 14 days. For results shown in FIGS. 10 to 12: Ang II was chronically infused subcutaneously by osmotic pumps (model 2000, Alzet) at a dose of 0.7 μg/kg per minute for 16 days. TAT.proteins (20 mg/kg) were injected intraperitoneally once daily for 8 days starting at day 8. Thoracic aortic banding (TAB) and pressure gradient measurements were performed as described^39.

p27 KO mice = assay: Chronic Ang II infusion for 14 days with daily TAT.protein injection, p27 KO mice; format: in vivo; settings: for FS / LVEDD / LVEF / LVESD / PWD: p27 KO, echocardiography at 14 days
Method: (A) Heart-weight corrected for body-weight (left panel) and Masson-stain of myocardial cross sections (right panel). Mean±s.e.m., n=6-8. *P<0.01 vs sham saline. **P<0.01 vs Ang II. Scale bar, 2 mm. (B) Cell size analysis of adult cardiac myocytes isolated from 8-weeks-old mice. One hundred cells from three different mice were analyzed per group. Mean±s.e.m. *P<0.01 vs sham saline. **P<0.01 vs Ang II. (C) Determination of ANF/BNP mRNA levels by qRT-PCR. Mean±s.e.m., n=6-8. *P<0.01 vs sham saline. **P<0.01 vs Ang II. (D) CK2-alpha-prime-dependent kinase activity determined in whole left ventricular tissue samples. One typical result of two independent experiments is shown. (E, F) Ang II action induces apoptosis in p27^−/− mice. (E) Quantification of apoptotic cardiac myocytes (white arrowheads) by in situ TUNEL and GATA4 immunofluorescence histochemistry of left ventricular specimen. Mean±s.e.m., n=4. *P<0.01 vs sham saline. **P<0.05 vs sham saline. #P<0.01. (F) Determination of caspase 3 activity in total left ventricular heart tissue samples. Mean±s.e.m., n=4. *P<0.05 vs sham saline. #P<0.01. (G) Model for CK2-alpha-prime-dependent regulation of cardiac hypertrophy through phosphorylation of p27. Hypertrophic signals stimulate CK2-alpha-prime kinase that phosphorylates p27 at S83 and T187. Phosphorylation of p27 impairs its ability to bind to and inhibit […] activity. Subsequently, p27 is proteasomally degraded allowing hypertrophic growth to proceed.
Next, the inventors examined the effect of transduced proteins on cardiac hypertrophy in p27^−/− mice. Elimination of p27 gene function in these animals completely abrogated the ability of kd.CK2-alpha-prime to block cardiac hypertrophy (FIG. 6A-D). In contrast, hypertrophic responses to Ang II were abolished by p27deltaPi injections. Thus, reconstitution of p27 protein abundance in the myocardium of p27^−/− mice was accompanied by inhibition of Ang II action. Moreover, the inventors observed a marked increase in the number of TUNEL-positive cardiomyocyte nuclei in Ang II-infused p27^−/− mice (FIG. 6E,F) as compared to the WT controls. […] This was in direct contrast to the effect seen by ectopic kd.CK2-alpha-prime consistent with the inventors' previous work showing that CK2 is cardioprotective^73,74.
as §1

[1] = Ang infusion 1.4 μg/kg per minute 14 days, TAT.protein 10 mg/kg i.p. once daily
[2] = saline infusion, TAT.protein 10 mg/kg i.p. once daily 14 days

B1: kd.CK2-α′: catalytically-inactive kinase-dead CK2-alpha-prime, point mutation K69M; TAT-conjugated protein in mice, lentivirally expressed in cardiomyocytes (protein)
chain: MPGPAAGSRARVYAEVNSLRSREYWDYEAHVPSWGNQDDYQLVRKLGRGKYSEVFEAINITNNERVVVMILKPVKKKKIKREVKILENLRGGTNIIKLIDTVKDPVSKTPALVFEYINNTDFKQLYQILTDFDIRFYMYELLKALDYCHSKGIMHRDVKPHNVMIDHQQKKLRLIDWGLAEFYHPAQEYNVRVASRYFKGPELLVDYQMYDYSLDMWSLGCMLASMIFRREPFFHGQDNYDQLVRIAKVLGTEELYGYLKKYHIDLDPHFNDILGQHSRKRWENFIHSENRHLVSPEALDLLDKLLRYDHQQRLTAKEAMEHPYFYPVVKEQSQPCADNAVLSSGLTAAR
modifications: left off: small tags and cut ends
notes: TAT-conjugated protein in mice, lentivirally expressed in cardiomyocytes
For B1, the “cardiac hypertrophy to Ang II (heart/body weight ratio, myocyte area, ANF/BNP mRNA)” value (WT mice; Ang II-treated WT mice, TAT.proteins 10 mg/kg i.p. once daily 14 days) was “abrogate cardiac hypertrophy”, the “Ang II-induced CK2-alpha-prime activity (left ventricular immunocomplex kinase assay)” value (WT mice; Ang II-treated WT mice, left ventricular extracts) was “abolished” and the FS (WT mice; [1]) was 38 ± 2.6** %. For the same molecule, the LVEDD (WT mice; [1]) was 3.8 ± 0.2** mm, the LVEF (WT mice; [1]) was 71 ± 2.3** % and the LVESD (WT mice; [1]) was 1.3 ± 0.1** mm. The PWD (WT mice; [1]) was 0.7 ± 0.2** mm, the LVEDD (WT mice; [2]) was 3.7 ± 0.2 mm and the LVEF (WT mice; [2]) was 71 ± 2.4%. For the same molecule, the LVESD (WT mice; [2]) was 1.4 ± 0.2 mm, the PWD (WT mice; [2]) was 0.7 ± 0.1 mm and the FS (WT mice; saline infusion, TAT.protein 10 mg/kg i.p. once daily 14 days, 8-weeks of age) was 40 ± 1.5%. The “cardiac hypertrophy / hypertrophic responses to Ang II” value (p27 KO mice; Ang II-infused p27−/− mice, TAT.proteins 10 mg/kg i.p. once daily) was “fails to inhibit cardiac hypertrophy”, the FS (p27 KO mice; [1]) was 52 ± 1.9* % and the LVEDD (p27 KO mice; [1]) was 4.5 ± 0.1* mm. The LVEF (p27 KO mice; [1]) was 83 ± 2.8* %, the LVESD (p27 KO mice; [1]) was 2.1 ± 0.2* mm and the PWD (p27 KO mice; [1]) was 1.2 ± 0.1* mm. The FS (p27 KO mice; [2]) was 39 ± 2.6%, the LVEDD (p27 KO mice; [2]) was 3.8 ± 0.2 mm and the LVEF (p27 KO mice; [2]) was 69 ± 2.3%. For the same molecule, the LVESD (p27 KO mice; [2]) was 1.3 ± 0.1 mm and the PWD (p27 KO mice; [2]) was 0.7 ± 0.2 mm.
